Experimental data: US20020037853A1
Each block holds one substance with its values, some of them ahead of it. No end group written: not given here.

Tests used:
[1] = target: cell surface receptors for collagen on human dermal fibroblasts; experiment: about 100,000 human fetal dermal fibroblasts on coated glass coverslips, 15 min, attached cells counted; uncoated control 7.01
[2] = target: cell surface receptors for collagen on human dermal fibroblasts; experiment: cell-binding activity relative to the inventive peptide of Examples 1 and 2
[3] = target: cell surface receptors for collagen on human dermal fibroblasts; experiment: cell-binding activity relative to the SEQ ID NO:1 peptide
[4] = target: cell surface receptors for collagen on human dermal fibroblasts; experiment: attachment of fibroblasts to collagen-coated dishes, polyproline in the medium at 1.7 × 10^-6 M; competitor collagen
[5] = target: cell surface receptors for collagen on human dermal fibroblasts; experiment: attachment of fibroblasts to collagen-coated dishes, peptide in the medium at 35 × 10^-6 M; competitor collagen
[6] = target: cell surface receptors for collagen on human dermal fibroblasts; experiment: biological (cell-binding) activity relative to P-15; assay not described there
[7] = target: cell surface receptors for collagen on human dermal fibroblasts; experiment: fibroblast attachment to coated coverslips, 15 min; reference collagen
[8] = target: cell surface receptors for collagen on human dermal fibroblasts; experiment: attachment of fibroblasts to collagen-coated dishes, peptide in the medium at 36 × 10^-6 M; competitor collagen
[9] = target: cell surface receptors for collagen on human dermal fibroblasts; experiment: fibroblast attachment to coated coverslips, 15 min
[10] = target: cell surface receptors for collagen on human dermal fibroblasts; experiment: various other similar cell attachment studies on glass or polystyrene
[11] = target: cell surface receptors for collagen on human dermal fibroblasts; experiment: attachment of fibroblasts to collagen-coated dishes, peptide in the medium at 7.2 × 10^-6 M; competitor collagen

Substance: Rat tail tendon collagen (rat tail type I collagen) (from UniProt P02454 152-1207; P02466 86-1125)
- Concentration of Cells (relative binding of cells after 15 minutes) [1]: 8.59

Substance: Polyproline (peptide)
- % Inhibition of Cell Attachment [4]: 10%
- % of Maximal Cell Attachment [4]: 90%

Substance: Gly-Ile-Ala-Gly-Gln (SEQ ID NO:6) (peptide)
- Relative Cell-Binding Activity (% relative to the SEQ ID NO:1 peptide) [2]: 70

Substance: GPQGIAGQR (SEQ ID NO:2)
- Relative Cell-Binding Activity (% relative to the SEQ ID NO:1 peptide) [2]: 100

Substance: human preangiotensinogen 1-14 (from UniProt P01019 25-38) (peptide)
- % Inhibition of Cell Attachment [5]: 12%
- % of Maximal Cell Attachment [5]: 88%

Substance: Inventive peptide Gly-Thr-Pro-Gly-Pro-Gln-Gly-Ile-Ala-Gly-Gln-Arg-Gly-Val-Val (SEQ ID NO:1)
- increase in cell binding over collagen-coated dishes [7]: 40%
- % Inhibition of Cell Attachment [8]: 88%
- % of Maximal Cell Attachment [8]: 12%
- Concentration of Cells (relative binding of cells after 15 minutes) [1]: 11.1
- increase in cell binding over the control (no collagen or peptide) [9]: 60%
- potency in binding cells relative to collagen (fold over collagen) [10]: 2
- % Inhibition of Cell Attachment [11]: 85%
- % of Maximal Cell Attachment [11]: 15%

Substance: QGAIAQ (SEQ ID NO:7)
- Relative Cell-Binding Activity (% relative to the SEQ ID NO:1 peptide) [2]: 70

Substance: QGIAGQ (SEQ ID NO:3)
- Relative Cell-Binding Activity (% relative to the SEQ ID NO:1 peptide) [2]: 120

Substance: Dynorphin 1-13 (from UniProt P01213 207-219) (peptide)
- % Inhibition of Cell Attachment [5]: 19%
- % of Maximal Cell Attachment [5]: 81%

Results, then the substance that gave them:

- Relative Cell-Binding Activity (% relative to the SEQ ID NO:1 peptide) [2]: 87
Substance: FGIAGF (SEQ ID NO:5)

- cell-binding activity relative to the SEQ ID NO:1 peptide [3]: 42%
Substance: Gln-Gly-Ile-Ala-Gly (SEQ ID NO:8) (peptide)

- Relative Cell-Binding Activity (% relative to the SEQ ID NO:1 peptide) [2]: 60
Substance: QGIAGQR (SEQ ID NO:4)

- biological activity relative to P-15 [6]: 60%
Substance: dipeptide -Ile-Ala-
